B1: EHEE_rd3_0053 (parent)
chain: TYTFKVDNKDQAKKAAKWAKKLGLSFQIEKHGDTFKITVQ

Variants of: B1
Assay: folding stability dG (cDNA display proteolysis); higher = more stable
Conditions: PBS, room temperature

Variant | folding stability dG
TYTFKVDNKDQAKKAAKWAKKLGLSFQTEKHGDTFKITVQ | 0.849 kcal/mol
TYTFKVDNKDQAKKAAKWAKKLGLSFQFEKHGDTFKITVQ | 1.47 kcal/mol
TYTFKVDNKDQAKKAAKWAKKLGRSFQIEKHGDTFKITVQ | 1.15 kcal/mol
TYTFKVDNKDQAKKAAKWAKKLGFSFQIEKHGDTFKITVQ | 2.2 kcal/mol
TYTFKVDNKDQAKKAAKWAKKLGDSFQIEKHGDTFKITVQ | -0.587 kcal/mol
TYTFKVDNKDQAKKAAKWAKKLGHSFQIEKHGDTFKITVQ | 1.31 kcal/mol
TYTFKVDNKDQAKKAAKWAKKLGNSFQIEKHGDTFKITVQ | 0.22 kcal/mol
TYTFKVDNKDQAKKAAKWAKKLGQSFQIEKHGDTFKITVQ | 0.563 kcal/mol
TYTFKVDNKDQAKKAAKWAKKLGESFQIEKHGDTFKITVQ | -0.483 kcal/mol
TYTFKVDNKDQAKKAAKWAKKLGGSFQIEKHGDTFKITVQ | 0.159 kcal/mol
TYTFKVDNKDQAKKAAKWAKKLGISFQIEKHGDTFKITVQ | 1.73 kcal/mol
TYTFKVDNKDQAKKAAKWAKKLGMSFQIEKHGDTFKITVQ | 2.11 kcal/mol
TYTFKVDNKDQAKKAAKWAKKLGWSFQIEKHGDTFKITVQ | 2.04 kcal/mol
TYTFKVDNKDQAKKAAKWAKKLGTSFQIEKHGDTFKITVQ | 0.294 kcal/mol
TYTFKVDNKDQAKKAAKWAKKLGYSFQIEKHGDTFKITVQ | 2.33 kcal/mol
TYTFKVDNKDQAKKAAKWAKKLGSSFQIEKHGDTFKITVQ | 0.343 kcal/mol
TYTFKVDNKDQAKKAAKWAKKLGASFQIEKHGDTFKITVQ | 1.01 kcal/mol
TYTFKVDNKDQAKKAAKWAKKLGKSFQIEKHGDTFKITVQ | 1.32 kcal/mol
TYTFKVDNKDQAKKAAKWAKKLGVSFQIEKHGDTFKITVQ | 1.4 kcal/mol
TYTFKVDNKDQAKKAAKWAKKLGLDFQIEKHGDTFKITVQ | 2.18 kcal/mol
TYTFKVDNKDQAKKAAKWAKKLGLNFQIEKHGDTFKITVQ | 2.36 kcal/mol

Variant | folding stability dG
TYTFKVDNKDQAKKAAKWAKKLGLVFQIEKHGDTFKITVQ | 2.42 kcal/mol
TYTFKVDNKDQAKKAAKWAKKLGLHFQIEKHGDTFKITVQ | 2.29 kcal/mol
TYTFKVDNKDQAKKAAKWAKKLGLYFQIEKHGDTFKITVQ | 2.18 kcal/mol
TYTFKVDNKDQAKKAAKWAKKLGLKFQIEKHGDTFKITVQ | 2.46 kcal/mol
TYTFKVDNKDQAKKAAKWAKKLGLPFQIEKHGDTFKITVQ | 1.97 kcal/mol
TYTFKVDNKDQAKKAAKWAKKLGLAFQIEKHGDTFKITVQ | 2.36 kcal/mol
TYTFKVDNKDQAKKAAKWAKKLGLMFQIEKHGDTFKITVQ | 2.29 kcal/mol
TYTFKVDNKDQAKKAAKWAKKLGLWFQIEKHGDTFKITVQ | 2.38 kcal/mol
TYTFKVDNKDQAKKAAKWAKKLGLRFQIEKHGDTFKITVQ | 2.4 kcal/mol
TYTFKVDNKDQAKKAAKWAKKLGLEFQIEKHGDTFKITVQ | 2.21 kcal/mol
TYTFKVDNKDQAKKAAKWAKKLGLFFQIEKHGDTFKITVQ | 2.31 kcal/mol
TYTFKVDNKDQAKKAAKWAKKLGLGFQIEKHGDTFKITVQ | 1.89 kcal/mol
TYTFKVDNKDQAKKAAKWAKKLGLTFQIEKHGDTFKITVQ | 2.45 kcal/mol
TYTFKVDNKDQAKKAAKWAKKLGLLFQIEKHGDTFKITVQ | 2.39 kcal/mol
TYTFKVDNKDQAKKAAKWAKKLGLQFQIEKHGDTFKITVQ | 2.37 kcal/mol
TYTFKVDNKDQAKKAAKWAKKLGLIFQIEKHGDTFKITVQ | 2.43 kcal/mol
TYTFKVDNKDQAKKAAKWAKKLDLSFQIEKHGDTFKITVQ | 1.02 kcal/mol
TYTFKVDNKDQAKKAAKWAKKLLLSFQIEKHGDTFKITVQ | 1.24 kcal/mol
TYTFKVDNKDQAKKAAKWAKKLSLSFQIEKHGDTFKITVQ | 1.42 kcal/mol
TYTFKVDNKDQAKKAAKWAKKLVLSFQIEKHGDTFKITVQ | 0.722 kcal/mol
TYTFKVDNKDQAKKAAKWAKKLCLSFQIEKHGDTFKITVQ | 1.62 kcal/mol

Variant | folding stability dG
TYTFKVDNKDQAKKAAKWAKKLMLSFQIEKHGDTFKITVQ | 1.59 kcal/mol
TYTFKVDNKDQAKKAAKWAKKLHLSFQIEKHGDTFKITVQ | 1.79 kcal/mol
TYTFKVDNKDQAKKAAKWAKKLYLSFQIEKHGDTFKITVQ | 1.1 kcal/mol
TYTFKVDNKDQAKKAAKWAKKLALSFQIEKHGDTFKITVQ | 1.23 kcal/mol
TYTFKVDNKDQAKKAAKWAKKLWLSFQIEKHGDTFKITVQ | 0.761 kcal/mol
TYTFKVDNKDQAKKAAKWAKKLFLSFQIEKHGDTFKITVQ | 1.3 kcal/mol
TYTFKVDNKDQAKKAAKWAKKLNLSFQIEKHGDTFKITVQ | 1.97 kcal/mol
TYTFKVDNKDQAKKAAKWAKKLQLSFQIEKHGDTFKITVQ | 1.52 kcal/mol
TYTFKVDNKDQAKKAAKWAKKLILSFQIEKHGDTFKITVQ | 0.784 kcal/mol
TYTFKVDNKDQAKKAAKWAKKLRLSFQIEKHGDTFKITVQ | 1.66 kcal/mol
TYTFKVDNKDQAKKAAKWAKKLPLSFQIEKHGDTFKITVQ | -0.809 kcal/mol
TYTFKVDNKDQAKKAAKWAKKLKLSFQIEKHGDTFKITVQ | 1.85 kcal/mol
TYTFKVDNKDQAKKAAKWAKKLELSFQIEKHGDTFKITVQ | 1.08 kcal/mol
TYTFKVDNKDQAKKAAKWAKKLTLSFQIEKHGDTFKITVQ | 0.657 kcal/mol
TYTFKVDNKDQAKKAAKWAKKYGLSFQIEKHGDTFKITVQ | 2.3 kcal/mol
TYTFKVDNKDQAKKAAKWAKKWGLSFQIEKHGDTFKITVQ | 2.21 kcal/mol
TYTFKVDNKDQAKKAAKWAKKVGLSFQIEKHGDTFKITVQ | 1.78 kcal/mol
TYTFKVDNKDQAKKAAKWAKKSGLSFQIEKHGDTFKITVQ | 1.56 kcal/mol
TYTFKVDNKDQAKKAAKWAKKQGLSFQIEKHGDTFKITVQ | 2.14 kcal/mol
TYTFKVDNKDQAKKAAKWAKKRGLSFQIEKHGDTFKITVQ | 2.63 kcal/mol
TYTFKVDNKDQAKKAAKWAKKTGLSFQIEKHGDTFKITVQ | 1.41 kcal/mol

Source: the MegaScale stability set (Tsuboyama et al. 2023)
